From the nanobody polyreactivity screen of Harvey et al. (2022)

Test: yeast display, Sf9 membrane polyspecificity reagent, FACS + sequencing; frameworks hold sequencing errors
Procedure, shortened: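 Galactose induction of a Saccharomyces cerevisiae BJ5465 synthetic nanobody display library ran 36–48 hours. The cells were then stained for 1 hour at 4 °C with 10% biotinylated, detergent-solubilized Sf9 membrane reagent, pulled down on streptavidin microbeads and FACS-sorted into low and high (top ~1%) gates on expression and reagent-binding fluorescence. Labels for polyreactivity follow the gate of origin.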

Sequence | polyreactivity (PSR sort gate)
QVQLVESGGGLVQAGGSLRLSCAASGRTCGYYAMGWYRQAPGKEREFVAVITWSGDSTYYADSVKGRFTISRDNAKNTVYLQMNSLKPEDTAVYNGNADSGNAGTAYDDYDYSGQGTQVTVSS | low polyreactivity
QVQLVESGGGLVQAGGSLRLSCAASGSTFRQYAMGWYRQAPGKERELVAAIRGRDGSTYYADSVKGRFTISRDNAKNTVYLQMNSLKPEDTAVYYCNVVARGVSPGYDYWGQGTQVTVSS | high polyreactivity
QVQLVESGGGLVQAGGSLRLSCAASGLTFYYYTMGWYRQAPGKERELVAAITSGGSTYYADSVKGRFTISRDNAKNTVYLQMNSLKPEDTAVYDCAAVPSRYGRYRYYYWGQGTQVTVSS | high polyreactivity
QVQLVESGGGLVQAGGRLRLSCAASGRTMGWYRQAPRKERELVAAITSGGGSTYYADSVKWRFTISRDNAKNTVYLQMNSLKPEDTAVYYCARTTIAQLHSIVAPHDYWGQGTQVNVSS | low polyreactivity
QVQLVESGGGLVQAGGSLRLSCAASGSIFSFYAMGWYRQAPGKERELVAAISRSGGSTYYADSVKGRFTISRDNAKNTVYLQMNSLKPEDTAVYYCAADYYYGTYDYWGQGTQVTVSS | low polyreactivity
QVQLVESGGGLVQAGGSLRLSCAASGSIFSVNAMGWYRQAPGTEREFVASINFRGGRTYYADSVKGRFRISRDNAKNTVYLQMNCLKPEDTADYYCAAVITLTDTGYGPSFRVFYWGQGTQVTVSS | high polyreactivity
QVHLVESGGGLVQAGGSLRLSCAASGFTCGYNAMGWYRQAPGKETELVATICGGGRTKYADSVKGRFTLSRDNAKNTVYLQMNSLKPEDTAVYYCNVVQTYYRGSYIYIKYGYWGQGTQVTVSS | high polyreactivity
QVQLVESGGGLGQAGGSLRLSCTASGRIFPYYAMGWYRQAPGKERELVAALSGRGGRTYYADSVKGRFTISRDNAKNTVYLQMNSLNPEDTAVYYCNARVQAVHYGYWGQGTQVTVSS | high polyreactivity
QVQLVESGGGLVQAGGSLRLSCAASGYIFYENAMGWYRQAPGKERELVAAIRFTGGSTYYADSVKGRFTISRDNAKNTVYLQMNSLKPEDTAVYYCSKSYPDTQRYQYPRGWELDYWGQGTQVTVSS | low polyreactivity
QVQLEESGGGLVQAGGSLRLSCAASGRIFYLNAIGWYRQAPRKATELVAAINTSGDSTYYADSVKGRFTISRDNAKNTVYLQMNSLKPEDTAVYYCAAFGIGPDQFIYDYWGQGTKVTVSS | low polyreactivity
QVQLVESGGGLVQAGGSLRLSCAASGRIFGFYGMGWYRQAPGKERELVAAITNRVGSTYYADSVKGRFTISRDNAKNTVYLHMHSLKPEDTAVYSCARRSGWWTRMDSWGQGTQVTVSS | high polyreactivity
QVQLVESGGGLVQAGGSLRLSCAASGGTFQQNAMGWSRQAPGKERELVAAISWSDGSTYYADSVKGRFTISRDYATNTVYLQMNSLTPEDTAVYYCAADFTYYDSPYRDYNYESWGQGTQVTVSS | low polyreactivity
QVQLVESDGGLVQAGGSLRLSCAASGIIFGYYVMGWYRPAPGKERELVASITSGGSTNYADSVKGRFTISRDNAKNTVYFQMNSLKPEDTAVYYCAAEERTDTIPGWRYPHDYWGQGTQVTVSS | low polyreactivity
QVQLVESGGGLVQAGGSLRLSCAASGSTFRTNAMGWYRQAPGKERELVAAISGSGSRTYYADSVKGRFTISRDNAKNTVYLQMNSLKPEDTAVYYCAAVYGGVGYRRREYWGQGTQVTVSS | high polyreactivity
LLMGWYRQAPGEERELVAGINDGASTNYADSVKGRFTISRDNARNTVYLKMNSLKPGDTAVYYCAVWQPVLIWFYYWGQGTQVTVSS | high polyreactivity
QVQLVESGGGLVQAGGSLRLSCAASGFIFPRNVMGWYRQAPGKERELVAAISRSGGSTYYADSVKGRFTISRDNAKNTVYLQMNSLTPEDTAVYYCAKRPAYYYFVYQVPIGYDYWGQGTQVTVSS | high polyreactivity
QVQLVESGGGLVQAGGSLRLSCAASGRIFGPYAMGWYRQAPGKERELVAAITRGGSTSYADSVKGRFTISRDNAKNTVDLQMISLKTEDTAVDYCAADTLRWWYGFDYWGQGTQVTVSS | low polyreactivity
QDQLVESGGGLVQAGGSLRLSCAASGSTFSIYAMGWYRQATGKERELVAAIPYSGGSTYYADSVKGRFTISRDNAKNTVYLQMNSLKPEDTAVYYCAAEVYDSRWWYSGATDDYWGQGTQVTVSS | high polyreactivity
QVQLVESGGGLVQAGGSLRLSCAASGITFRWYAMGWYRQAPGKERELVAAISSSGGSTYYADSVKGRFTISRDNAKNTVYLQMNSLKPEDTAVYYCAAYTSYASDYWGQGTQVTVSS | high polyreactivity
QVQLVESGGGLVQAGGSHRLSCAASGSTFEYNDMGGNRQEQGKERELVAAISSGGDTNYADSVKGRFTISRDNAKNTVFLQMNSLKPEDTAVYYCAADDWSPYLCYYGYAGYYYCGQGTQVTVSS | low polyreactivity
QVQLVESGGGLVQAGGSLRLSCASSGSIFRRYAMGWYRQATGKERELVAAISSNGGSTYYADSVKGRFTISRDNAKNTVYLQLNSLKPEDTAGYYCNAQVVHYRVSSVITYTIYDYWGQGTQVTVSS | high polyreactivity
QVQLVESGGGLVQAGGSLSLSCAASGIIFVDYAMGWYRQAPGKERELVAVIRSAGSTYYADSVKGRFTISRDNAKNTVYLQMNSLKPEDTAVYYCNARARGARRYYYWGQGTQVTVSS | high polyreactivity

Sequence | polyreactivity (PSR sort gate)
QVQLVESGGVLVQAGGCLRLSCAASGSILDLNAMGWYRQAPGKERELVAAISLSGGTTYYADSVKGRFTISRDNAKNTVYLQMYSLKPEDTAVYYCNAGYFRPRAGNYVFGVESDYWGQGTQVTVSS | high polyreactivity
QVQLVESGGGLVQAGGSLRLSCAASGRTFRVYTMGWYRQAPGKERELVAAISSRGGSTYYADSVKGRFTISRDNAKNTVYLQMNSLKPEDTAVYYCAAVSYYPARYGYWGQGTQVTVSS | high polyreactivity
QVQLVESGGGLVQAGGSLRLSCAASGSIFVPYAMGWYRQAPGKERELVAAISSGGSTNYADSVKGRFTISRDNAKNTVYLQMNSLKPEDTAVYYCNADYSVYIIADEYDYWGQGTQVTVSS | low polyreactivity
QVQLVESGGGLVQAGGSLRLSCAASGITFSSYTMGWYRQARGKERELVAAISRTGGSTYYADSVKGRFTISRDNAKNTVYLQMNSLIPEDTAVYYCAARVAGRTLSGGDYWGQGTQVTVSS | high polyreactivity
QVQLVESGGGLVQAGGSLRLICAASGITFYAYPMGWYRQAPGKERELVAAITSSGSSTYYADSVKGRFTISLDNAKNTVYFQMNSLKPEDTAVFYCAATRGTKFYWGQGTQVTVSS | high polyreactivity
QVQLVESGEGLVQAGGSLRLSCAASRRIFEYYFMGWYSQAPGKERELVAAMNRRGTSTYYADSVKGRFTISRDNAKNTVYLQMNSLKPEDTAVYYCAAVDRDYARTTTYDYWGQGTEVTVSS | high polyreactivity
QVQLVESGGGLVQAGGSLRLSCAASGSTFQYYAMGWYRQAPGKERELVASITWGGDNTDYADSVKGRFTISRDNAKNTVYLQMNSLKPEDTAVYYCNTVRSNKMDYWGQGTQVTVSS | high polyreactivity
QVQLVESGGRLVQAGGSLRLSCAASGSTFDNNAMGWYRQAPGKEREFVAAITYSGGGSTSYADSVKGRFTISRDNAKNTVYLQMNSLKAEDTAVYFCAARDFETDGYTLVAYIYWGQGSQVTVSS | low polyreactivity
QVQLVESGGGLVQAGGSLRLSCAASGRIFTAYTMGWYRQAPGKERELVAAISTSGTSTYYADSVKGRFTISRDNAKNTVYLQMHSLKPEDTAVYYCATDYYYYPHSQYDYWGQGTQVTVSS | low polyreactivity
QDQLVESGGGLVQAGGSLRLSCAASGSIFGVNDMGWYRQGAGKERELVAGINQGGGSTYYADSVKGRFTISRDNAKNSVYLQMNSLKPEETAVYYCAAVRYVLRSPARYGYWGQGTQVTVSS | low polyreactivity
QVQLVESGRGLVQAGGSLRLSCAASGLTFRVYAMGWYRQAPGKERELVAAITGGGGSTYADSVKGRFTISRDNAKNTVYLQMNSLKPQDTAVYYCNKKGYYYKFDYWGQGTQVTVSS | low polyreactivity
QVQLVESGGGLVQAGGSLRLSCAASGITFFTNVMGWYRPAPGKERELVAAISRSGTSTYYADSVKGRFTISRDNAKNTVYLQMNSLKPEDTAVYYCNADQIRGDGDYWGQGTQVTVSS | high polyreactivity
QVQLVESGGGLVQAGGSLRLSCAASGYTFDYNAMGSYRQAPGKERELVADITGSGASTSYADSVKGRFTISRDYAKNTVYLQMNSLKPEDTAVYYCNADDSYFYELYGYWGQGTQVTVSS | low polyreactivity
QVQLVESGGGIVQSGGSLRLSCAASGRTFSSYAMGRYRQAPGKEMALVAAINRGGGSTYYADSVKGRFTISRDNAKNTVYLQMNSLKPEDTAVYYCNARSKLTYEYDYWGQGTQVTVSS | high polyreactivity
QVQLVESGGGLVQAGGSLRLSCAASGSIIKSYAMGWYRQAPGKGRELVAAISSGGSTNYADSVKGRFTISRDNAKNTVYLQMNSLKPEDTAVYYCAARFRVDHRPYYYWGQGTQVTVSS | low polyreactivity
QVQLVESGGGLVQAGGSLPLSCAASGRTINTNAMGWSRQAPGKERELVAAISGGGSTYADSVKGRFTISRDNAKNTVYLQMNSLKPEDTAVYYCAAQNVWIYGFWRDYWGQGTQVTVSS | low polyreactivity
QVQLVESGGGLVQAGGSLRLSCAASGLTFTPNAMGWYRQAPGKEREFVAAITWRGGRTYYADSVKGRFTISRDNAKNTVYLQMNSLKPEDTAVYYCAADSFKGYDYWGQGTQVTVSS | high polyreactivity
QVQLVESGGGLVQAGGSLRLSCAASGSTFVDYAMGWYRQAPGKERELVAGINGSGGSTYYADSVKGRFTISRDNAKNTVYLQMNSLKPEDTAVYYCAKDGSNRLALPAWDYNYWGQGTQVTVSS | low polyreactivity
QVQLVESGGGLVQAGGSLRLSCAASGRTFYYYAMGWYRQAPGKERELVAGITATGSSTYYADSVKGRFTISRDNAKNTVYLQMNSLKPEDTAVYYCAADRYTTYSGQWSYPYDYWGQGTQVTVSS | low polyreactivity
QVQLVESGGGLVQAGGSLRLSCASSGSIFRFNVMGWYRQAPGKERELVAAITRGDSTNYADSVKGRFTISRDNAKNTVYLQMNSLKPEDTAVYYCNARLYVPYRYDYWGQGTQVTVSS | low polyreactivity
QVQLVESGGGLVQAGGSLRLSCAASGRIFTPYVMGWYIQAPGKERELVADINLSGDSTSYADSVKGRFTISRDNAKNTVYLQMNSLKPEDTAVYYCAADFWLVSFQWDFEYDYWGQGTHVTVSS | low polyreactivity
